# Measured values: patent US20060099701
# Assays:
# [1] = test system: ACDK proteins (immunoprecipitated from brain tissue extracts with the anti-ACDK-specific antibody)
# [2] = test system: cyclin A (immunoprecipitated)
Substance,"pRB phosphorylation (kinase reaction, Western blot with pRB phosphospecific antibodies) [1]","pRB phosphorylation (kinase reaction, Western blot with pRB phosphospecific antibodies) [2]","observed phosphorylation efficiency of pRB, against the cyclin A-CDK2 complex [1]"
"CDK1 (immunoprecipitated, native)",by ACDK-CDK1 complex at serine 249 and/or threonine 252,"Lane B, pRB phosphorylated by cyclin A-CDK1 (positive control)",
"CDK2 (immunoprecipitated, native)",pRB was phosphorylated by ACDK-CDK2 complex at threonine 821,"Lane B, pRB phosphorylated by cyclin A-CDK2 (positive control)",ACDK-CDK2 activity was approximately 2-fold higher than that of cyclin A-CDK2 complex
